According to publication PMC7005798, “Increased circulating levels of Factor H-Related Protein 4 are strongly associated with age-related macular degeneration” (Nature Communications, 2020):

Tests used:
C3b [1] = target: T1, C3b (human, UniProt P01024 23-667; P01024 749-1663); assay: ELISA; solid-phase binding assay: C3b adsorbed on microtiter wells (1 ug per well); 100 nM FH or FHL-1 mixed with rising FHR-4 up to 500 nM, 4 h at room temperature in 20 mM HEPES, 130 mM NaCl, 0.05% Tween-20, pH 7.3; bound FH or FHL-1 detected with the OX23 antibody; settings: both partners purified
T1 construct: complement C3 beta chain, human; Two disulfide-linked chains cut from the C3 precursor; also called human C3b; complement C3b; source: bought: VWR International, catalogue no; 204860 (purified)
T1 sequence (P01024 23-667, chain 1 of 2): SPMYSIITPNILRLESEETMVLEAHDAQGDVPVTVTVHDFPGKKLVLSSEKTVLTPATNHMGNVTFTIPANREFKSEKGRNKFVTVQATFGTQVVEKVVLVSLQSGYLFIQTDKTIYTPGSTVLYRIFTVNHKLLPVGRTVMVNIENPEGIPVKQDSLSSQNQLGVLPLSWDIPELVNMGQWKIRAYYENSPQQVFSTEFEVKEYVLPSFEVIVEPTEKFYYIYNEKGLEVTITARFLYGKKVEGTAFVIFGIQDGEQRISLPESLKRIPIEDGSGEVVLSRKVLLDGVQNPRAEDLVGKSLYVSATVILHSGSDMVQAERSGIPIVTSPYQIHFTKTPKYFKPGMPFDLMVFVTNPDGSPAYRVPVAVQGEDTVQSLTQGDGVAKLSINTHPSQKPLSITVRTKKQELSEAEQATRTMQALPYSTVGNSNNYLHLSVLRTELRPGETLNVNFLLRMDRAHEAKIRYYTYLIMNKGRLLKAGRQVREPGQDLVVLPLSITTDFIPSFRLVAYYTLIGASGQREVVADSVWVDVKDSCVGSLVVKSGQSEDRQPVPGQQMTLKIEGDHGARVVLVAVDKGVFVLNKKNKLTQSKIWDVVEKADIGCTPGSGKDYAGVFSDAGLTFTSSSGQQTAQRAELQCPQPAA
T1 sequence (P01024 749-1663, chain 2 of 2): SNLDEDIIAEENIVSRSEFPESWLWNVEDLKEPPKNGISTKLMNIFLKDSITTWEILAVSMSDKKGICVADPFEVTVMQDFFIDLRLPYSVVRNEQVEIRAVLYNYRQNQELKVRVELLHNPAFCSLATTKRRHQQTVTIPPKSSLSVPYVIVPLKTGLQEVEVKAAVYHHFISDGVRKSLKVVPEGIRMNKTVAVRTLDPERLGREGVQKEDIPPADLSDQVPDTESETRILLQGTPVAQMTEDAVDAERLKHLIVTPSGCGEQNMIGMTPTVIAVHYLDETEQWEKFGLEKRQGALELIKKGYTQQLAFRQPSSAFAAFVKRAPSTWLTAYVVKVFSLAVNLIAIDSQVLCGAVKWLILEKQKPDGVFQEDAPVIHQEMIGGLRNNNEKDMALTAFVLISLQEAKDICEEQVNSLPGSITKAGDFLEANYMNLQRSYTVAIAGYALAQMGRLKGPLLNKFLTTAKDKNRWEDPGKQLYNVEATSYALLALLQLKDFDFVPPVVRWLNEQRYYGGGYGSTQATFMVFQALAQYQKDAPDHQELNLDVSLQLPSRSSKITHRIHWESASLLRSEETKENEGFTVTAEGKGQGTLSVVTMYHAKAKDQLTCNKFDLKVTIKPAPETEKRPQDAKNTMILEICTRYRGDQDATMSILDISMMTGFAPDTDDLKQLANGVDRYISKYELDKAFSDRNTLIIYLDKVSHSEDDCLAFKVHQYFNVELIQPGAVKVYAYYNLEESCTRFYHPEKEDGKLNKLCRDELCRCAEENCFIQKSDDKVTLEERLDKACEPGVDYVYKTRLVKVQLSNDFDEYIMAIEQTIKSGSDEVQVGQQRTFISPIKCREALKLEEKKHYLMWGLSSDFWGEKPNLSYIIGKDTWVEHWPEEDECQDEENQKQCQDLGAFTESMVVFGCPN

C3b [2] = target: T1, C3b; assay: cell-based or functional assay

B1: complement factor H (FH) (natural protein, human, UniProt P08603 19-1231, looked up)
chain: EDCNELPPRRNTEILTGSWSDQTYPEGTQAIYKCRPGYRSLGNVIMVCRKGEWVALNPLRKCQKRPCGHPGDTPFGTFTLTGGNVFEYGVKAVYTCNEGYQLLGEINYRECDTDGWTNDIPICEVVKCLPVTAPENGKIVSSAMEPDREYHFGQAVRFVCNSGYKIEGDEEMHCSDDGFWSKEKPKCVEISCKSPDVINGSPISQKIIYKENERFQYKCNMGYEYSERGDAVCTESGWRPLPSCEEKSCDNPYIPNGDYSPLRIKHRTGDEITYQCRNGFYPATRGNTAKCTSTGWIPAPRCTLKPCDYPDIKHGGLYHENMRRPYFPVAVGKYYSYYCDEHFETPSGSYWDHIHCTQDGWSPAVPCLRKCYFPYLENGYNQNYGRKFVQGKSIDVACHPGYALPKAQTTVTCMENGWSPTPRCIRVKTCSKSSIDIENGFISESQYTYALKEKAKYQCKLGYVTADGETSGSITCGKDGWSAQPTCIKSCDIPVFMNARTKNDFTWFKLNDTLDYECHDGYESNTGSTTGSIVCGYNGWSDLPICYERECELPKIDVHLVPDRKKDQYKVGEVLKFSCKPGFTIVGPNSVQCYHFGLSPDLPICKEQVQSCGPPPELLNGNVKEKTKEEYGHSEVVEYYCNPRFLMKGPNKIQCVDGEWTTLPVCIVEESTCGDIPELEHGWAQLSSPPYYYGDSVEFNCSESFTMIGHRSITCIHGVWTQLPQCVAIDKLKKCKSSNLIILEEHLKNKKEFDHNSNIRYRCRGKEGWIHTVCINGRWDPEVNCSMAQIQLCPPPPQIPNSHNMTTTLNYRDGEKVSVLCQENYLIQEGEEITCKDGRWQSIPLCVEKIPCSQPPQIEHGTINSSRSSQESYAHGTKLSYTCEGGFRISEENETTCYMGKWSSPPQCEGLPCKSPPEISHGVVAHMSDSYQYGEEVTYKCFEGFGIDGPAIAKCLGEKWSHPPSCIKTDCLSLPSFENAIPMGEKKDVYKAGEQVTYTCATYYKMDGASNVTCINSRWTGRPTCRDTSCVNPPTVQNAYIVSRQMSKYPSGERVRYQCRSPYEMFGDEEVMCLNGNWTEPPQCKDSTGKCGPPPPIDNGDITSFPLSVYAPASSVEYQCQNLYQLEGNKRITCRNGQWSEPPKCLHPCVISREIMENYNIALRWTAKQKLYSRTGESVEFVCKRGYRLSSRSHTLRTTCWDGKLEYPTCAKR
notes: complement factor H, commercially available purified protein; also called CFH; source: bought: Sigma-Aldrich, catalogue no; C5813 (purified)
Q: Does B1 bind (C3b [1])?
A: binds

B2: Recombinant Factor H-Related Protein 4 (FHR-4), FHR-4B variant (natural protein, human, UniProt Q92496-3 20-331, looked up)
chain: EVKPCDFPEIQHGGLYYKSLRRLYFPAAAGQSYSYYCDQNFVTPSGSYWDYIHCTQDGWSPTVPCLRTCSKSDIEIENGFISESSSIYILNKEIQYKCKPGYATADGNSSGSITCLQNGWSAQPICIKFCDMPVFENSRAKSNGMRFKLHDTLDYECYDGYEISYGNTTGSIVCGEDGWSHFPTCYNSSEKCGPPPPISNGDTTSFLLKVYVPQSRVEYQCQSYYELQGSNYVTCSNGEWSEPPRCIHPCIITEENMNKNNIQLKGKSDIKYYAKTGDTIEFMCKLGYNANTSVLSFQAVCREGIVEYPRCE
Q: With B2 as the binder, how does the “inhibition of FHL-1/FI-mediated C3b α-chain cleavage in the fluid phase (blocks FHL-1 with C3b); FHR-4 up to a 5-fold molar excess over FHL-1, dose-dependent” value (C3b [2]) read?
A: 2.5 fold molar excess of FHR-4 over FHL-1 for 50% reduction
